Reference: PMC12608037

Key:
[1] = tested on: YihW (CsqR) K-12 MG1655 (Escherichia coli K-12 MG1655); experiment: EMSA; details: 50 mM Tris-Cl (pH not stated), 100 mM KCl, 50% glycerol, 1 mM EDTA (1x); 0.5 pmol DNA, 2-24 pmol YihW; 30 or 37 C, 30 min; 5% PAGE in 1x TBE; scale: protein:DNA molar ratio for complete binding
[2] = tested on: YihW (CsqR) Nissle 1917 (Escherichia coli Nissle 1917); experiment: EMSA; details: 50 mM Tris-Cl (pH not stated), 100 mM KCl, 50% glycerol, 1 mM EDTA (1x), 0.5 pmol DNA, 2-24 pmol YihW, 30 or 37 C, 30 min, 5% PAGE in 1x TBE, scale: protein:DNA molar ratio for complete binding

| Substance | binding signal [1] | binding signal ([2]; 30 C, equal efficiency to Nissle fragment) | binding signal ([2]; 30 C) | binding signal ([2]; 37 C, some DNA free at 48x, weaker than K-12 fragment) |
| --- | --- | --- | --- | --- |
| yihU/V intergenic region, K-12 MG1655 | 16 | 24 | – | – |
| yihU/V intergenic region, Nissle 1917 | 16 | – | 24 | > 48 |
